Measurements: patent US12552866B2, “Internalizing binding molecules targeting receptors involved in cell proliferation or in cell differentiation” (LinXis B.V., priority 2019, dated 2026)
Positions count from the first letter of the chain named. “Also recorded” adds a separate entry of the source. Each block holds one molecule with its values, some of them ahead of it.

Experiments:
[1] = biological target: T1, hIGF2R-ECD (Homo sapiens, UniProt P11717); experiment: Binding assay / titration ELISA on recombinant hIGF2R-ECD; details: construct conjugated to Alexa Fluor 647, direct read out; KD+SEM, n=2; read-out: calculated affinity (KD)
T1 construct: recombinant human extracellular domain of IGF2R (hIGF2R-ECD)
Protocol: The 15 unique hIGF2R binders (Example 1.1, FIG. 2) were produced and purified as described in examples 2 and 3. The apparent affinities were determined with binding assays on hIGF2R-ECD. Briefly, three-fold serial VHH dilutions, starting from 1 μM, were added onto hIGF2R-ECD coated plates. After 2 hours of incubation, plates were washed and bound VHH was detected using a VHH-specific IgG antibody, followed by an IRD800CW-conjugated IgG-specific antibody. […] VHH 13F11 was also produced with a C-terminal free cysteine and conjugated using maleimide chemistry to Alexa Fluor 647 (13F11-A647 in FIG. 8A, conjugation method as described in example 9.2). A titration ELISA (direct read out at 647 nm) with this construct was carried out on hIGF2R-ECD to determine whether the affinity was affected after site directed conjugation (FIG. 8B). The KD and Bmax were calculated in Graphpad (version 8.3), using one-site specific binding analysis (FIG. 8C).
Based on their high affinity and binding to non-overlapping receptor epitopes, VHHs 13F11 and 13E8 were selected for the design of biparatopic and bivalent VHH constructs. Two VHHs were fused with a flexible linker, consisting of three Gly-Gly-Gly-Gly-Ser repeats (FIG. 8A). The sequences were codon optimized for expression in E. coli and obtained as synthesized DNA fragments from GeneArt. The DNA fragments encoding VHHs were cloned into a vector pET28-based vector introducing a C-terminal free cysteine for site-directed conjugation and His6 tag for IMAC purification (FIG. 8A). The constructs were produced and purified as described in example 3. The constructs were conjugated to Alexa Fluor 647 (conjugation method as described in example 9.2) and titration ELISAs on recombinant hIGF2R-ECD (as described in example 4.1) were performed to determine the KD and Bmax (calculated in Graphpad (version 8.3), using one-site specific binding analysis) (FIG. 8C).
Next, 13F11-13E8 was genetically re-engineered to include an in vivo half-life extender in the form of an albumin binding domain (ABD) as described by Johansson et al (Structure, specificity, and mode of interaction for bacterial albumin-binding modules, J. Biol. Chem. 2002 (277): 8114-8120) and subsequently produced and purified as described in Example 3. Subsequently, 13F11-13E8-ABD was conjugated to IRDye800CW (F11E8-ABD-IRD800, conjugation method as described in example 9.2) and the binding affinities of the biparatopic VHH as well as the ABD unit was determined. […] The binding affinity (KD) of F11-E8-ABD-IRD800 to rat serum albumin (RSA) was 30 nM and to mouse serum albumin (MSA) and human serum albumin (HSA) the binding affinity was approximately 200 nM.

[2] = biological target: T1, hIGF2R-ECD; experiment: Competition ELISA with 13F11-A647 on immobilized hIGF2R-ECD; format: binding; details: for competition with 13F11 for binding to hIGF2R-ECD: 10 nM 13F11-A647, 250 nM unconjugated competitor
Protocol: With the term “compete” is meant that in a competition assay, such as for instance described in Example 5 and Example 8 of the present invention, the addition of a binding molecule induces a significant decrease in binding of a given VHH, i.e., the VHH to which the competing is determined. “Significant” in this respect is preferably a decrease of >5%, preferably >10% when 250 nM of a binding molecule is added to 10 nM of a fluorescence labelled VHH in an ELISA. […] The same test conditions and threshold apply to a binding molecule directed to PDGFRB when determining whether a binding molecule competes with a given VHH.
From the panel of 15 hIGF2R specific binders (FIG. 2), VHHs 13A8, 13A12, 13C11, 13E8, 13F11 and 13G10 were chosen for further characterization. A competition assay was performed to determine if the selected VHHs recognize distinct epitopes on hIGF2R. For this, a non-saturating amount (10 nM) of 13F11 conjugated to Alexa Fluor 647 (13F11-A647, conjugation method as described in example 9.2) was incubated with immobilized hIGF2R-ECD in the presence of unconjugated competitor (250 nM) (FIG. 10). Incubation of hIGF2R-ECD with 13F11-A647+13F11 was used as a positive control and incubation of hIGF2R-ECD with only 13F11-A647 was used to define the maximal fluorescence intensity.

[3] = In vivo pharmacokinetics in healthy Sprague-Dawley rats (serum ELISA); design: species or system rat
Protocol: The in vivo pharmacokinetic properties of 13F11-13E8-ABD was compared to 13F11-13E8 without the ABD moiety in healthy Sprague-Dawley rats. In brief, rats were dosed intravenously with approximately 3 mg/kg body weight and blood samples were taken at different time points and the concentration of the VHH constructs were determined using an ELISA on immobilized hIGF2R-ECD.

[4] = biological target: T2, IGF2R (Rattus norvegicus, UniProt G3V824); experiment: In situ detection of infused conjugate in liver cryo-sections (in vivo targeting of IGF2R)
T2 construct: from tissue; host or cells: cryo-sections of liver and other tissues, and liver in vivo, of Sprague-Dawley BDL and SHAM rats
Protocol: (§1) After catheterization and hemodynamic stabilization, rats were dosed with 5 mg/kg test conjugate or mock conjugate i.v. through the lateral tail vein and pressures were monitored continuously (example 13.1.). One hour after dosing, animals were sacrificed after which tissues were isolated for ex vivo analysis (example 13.2.).
After isolation, livers obtained from test conjugate-infused BDL and SHAM rats were fixated with paraformaldehyde, soaked in 30% (w/v) sucrose in PBS, and sectioned using cryo-microtome. To detect the test conjugate in situ, tissue sections were stained with a rabbit polyclonal anti-VHH antiserum recognizing the 13F11-13E8 moiety of the conjugate, followed by an anti-rabbit antibody conjugated to the fluorophore Alexa-488 for visualization by confocal fluorescence microscopy (cf. example 12). […] Further accumulation of the test conjugate in the BDL liver beyond this one-hour time point was likely to have occurred.

[5] = test system: BDL rats (portal hypertension); experiment: Portal pressure and mean arterial pressure in BDL and SHAM rats after i.v. dosing; format: in vivo, rat; details: 5 mg/kg i.v.
Description: To evaluate in vivo functionality, 13F11-13E8-ABD was conjugated to a Y27632-maleimide modified functional moiety (1e) (the test conjugate) as outlined in example 9.2. To provide a comparator, a similar amount of 13F11-13E8-ABD was conjugated to N-ethylmaleimide in a parallel and similar preparation (the mock conjugate).
To establish animals displaying portal hypertension (Klein et al, Fibrosis: Methods and Protocols. Methods in Molecular Biology. 2017 (1627): 91-122.), Sprague-Dawley rats were subjected to bile duct ligation (BDL) through median laparotomy under ketamine/xylazine-induced anaesthesia i.p. (BDL rats). To provide healthy controls, a second cohort of rats was subjected to the same surgical procedure except for actual ligation of the bile duct (SHAM rats). Surgery was followed-up with pain control medication (carprofen s.c.). Approximately five weeks after surgery, ketamine/xylazine anesthetized rats were subjected to median laparotomy, after which one catheter was inserted through an ileocecal vein to the portal vein, and one catheter was inserted into the femoral artery. The catheters were connected to pressure recording equipment, for assessment of portal pressure and mean arterial pressure, respectively.
as §1

[6] = biological target: T2, IGF2R; experiment: Immunofluorescence staining of tissue cryo-sections of BDL and SHAM rats
Protocol: After cryo-sectioning, the tissue sections were stained with 50 nM fluorescent 13F11-13E8-ABD-AF647 and incubated overnight at 4° C. Subsequently, the sections were washed and stained with DAPI and mounted with mowiol mounting medium (Merck) and were imaged on a Zeiss LSM700 laser scanning confocal microscope with a 20× objective.

[7] = one hour after 5 mg/kg i.v., anti-VHH staining

T2 sequence (G3V824 36-2481): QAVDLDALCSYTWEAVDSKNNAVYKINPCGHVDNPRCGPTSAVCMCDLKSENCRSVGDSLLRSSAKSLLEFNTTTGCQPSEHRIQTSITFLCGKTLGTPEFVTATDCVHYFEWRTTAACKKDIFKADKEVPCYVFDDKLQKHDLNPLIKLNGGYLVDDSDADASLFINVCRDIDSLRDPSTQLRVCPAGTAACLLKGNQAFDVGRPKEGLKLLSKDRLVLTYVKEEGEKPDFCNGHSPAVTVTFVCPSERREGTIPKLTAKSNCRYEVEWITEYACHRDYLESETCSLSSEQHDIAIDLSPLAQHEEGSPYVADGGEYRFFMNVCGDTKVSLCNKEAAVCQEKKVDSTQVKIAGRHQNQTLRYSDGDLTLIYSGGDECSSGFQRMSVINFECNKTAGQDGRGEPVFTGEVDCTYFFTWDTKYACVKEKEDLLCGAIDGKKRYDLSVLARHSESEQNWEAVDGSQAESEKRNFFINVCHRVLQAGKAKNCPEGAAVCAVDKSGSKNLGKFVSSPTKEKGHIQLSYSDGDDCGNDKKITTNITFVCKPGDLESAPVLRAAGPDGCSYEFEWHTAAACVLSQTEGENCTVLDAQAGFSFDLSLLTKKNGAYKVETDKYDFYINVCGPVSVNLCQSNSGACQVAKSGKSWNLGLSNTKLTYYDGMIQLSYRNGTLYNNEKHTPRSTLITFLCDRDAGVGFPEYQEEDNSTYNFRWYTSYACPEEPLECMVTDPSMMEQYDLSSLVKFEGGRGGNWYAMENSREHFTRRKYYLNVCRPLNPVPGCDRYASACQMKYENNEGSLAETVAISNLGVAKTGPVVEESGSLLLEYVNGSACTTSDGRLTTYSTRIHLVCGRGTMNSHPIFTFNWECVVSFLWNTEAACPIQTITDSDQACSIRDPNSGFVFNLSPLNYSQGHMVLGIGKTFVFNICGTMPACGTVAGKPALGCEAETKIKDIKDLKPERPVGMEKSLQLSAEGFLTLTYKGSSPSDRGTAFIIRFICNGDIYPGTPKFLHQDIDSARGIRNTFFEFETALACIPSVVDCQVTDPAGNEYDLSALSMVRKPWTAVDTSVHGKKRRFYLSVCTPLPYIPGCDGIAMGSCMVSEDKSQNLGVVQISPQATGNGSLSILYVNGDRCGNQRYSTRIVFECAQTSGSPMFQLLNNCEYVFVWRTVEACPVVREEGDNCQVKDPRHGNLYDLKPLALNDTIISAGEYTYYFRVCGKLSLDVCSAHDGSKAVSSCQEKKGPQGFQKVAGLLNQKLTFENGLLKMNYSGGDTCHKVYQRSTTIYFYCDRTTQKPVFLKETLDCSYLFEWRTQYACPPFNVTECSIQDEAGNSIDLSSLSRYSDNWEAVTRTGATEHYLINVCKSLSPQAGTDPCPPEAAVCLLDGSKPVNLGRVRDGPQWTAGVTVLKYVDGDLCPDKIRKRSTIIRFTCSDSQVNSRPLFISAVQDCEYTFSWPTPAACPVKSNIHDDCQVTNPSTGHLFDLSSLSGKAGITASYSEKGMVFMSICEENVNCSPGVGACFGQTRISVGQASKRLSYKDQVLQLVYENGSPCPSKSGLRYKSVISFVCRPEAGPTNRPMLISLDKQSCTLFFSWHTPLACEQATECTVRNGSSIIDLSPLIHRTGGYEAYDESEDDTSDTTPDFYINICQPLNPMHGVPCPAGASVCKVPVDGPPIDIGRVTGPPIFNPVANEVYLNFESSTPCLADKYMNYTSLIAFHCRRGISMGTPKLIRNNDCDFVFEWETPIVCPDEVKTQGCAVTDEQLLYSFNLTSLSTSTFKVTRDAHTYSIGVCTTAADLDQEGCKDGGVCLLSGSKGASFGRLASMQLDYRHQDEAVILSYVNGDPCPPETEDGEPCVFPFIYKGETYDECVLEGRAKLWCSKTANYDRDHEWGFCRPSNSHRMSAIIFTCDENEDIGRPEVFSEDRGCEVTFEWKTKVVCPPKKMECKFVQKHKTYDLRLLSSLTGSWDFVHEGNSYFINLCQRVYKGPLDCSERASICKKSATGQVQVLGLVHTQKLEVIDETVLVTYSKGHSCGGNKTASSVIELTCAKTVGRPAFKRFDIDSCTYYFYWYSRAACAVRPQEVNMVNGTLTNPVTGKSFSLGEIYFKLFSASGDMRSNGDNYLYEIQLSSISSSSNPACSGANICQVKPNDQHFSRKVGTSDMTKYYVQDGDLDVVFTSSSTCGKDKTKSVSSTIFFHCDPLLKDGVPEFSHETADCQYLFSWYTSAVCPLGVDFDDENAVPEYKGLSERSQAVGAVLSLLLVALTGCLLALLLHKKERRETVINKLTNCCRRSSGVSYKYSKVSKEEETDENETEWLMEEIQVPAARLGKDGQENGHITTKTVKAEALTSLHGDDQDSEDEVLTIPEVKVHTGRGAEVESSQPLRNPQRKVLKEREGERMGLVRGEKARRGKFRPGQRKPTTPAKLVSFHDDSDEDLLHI

Kd [1]: 1 ± 0.61 nM
B1: 13F11-A647: VHH 13F11 with C-terminal free cysteine conjugated using maleimide chemistry to Alexa Fluor 647 (conjugate)
VHH: EVQLVESGGRLVQPGDSLRLSCAASGRTFSDNAMGWFRQAPGKERRFVAGISWAGGSTYYSDSVKGRFTISRDNAKNTVYLQMNSLKPEDTAVYYCAAGLRAWVQRMPKDYNYWGQGTQVTVSS

binding to cells in liver sections of SHAM rats ([6]; 50 nM, overnight at 4° C.): not to cells in a liver from SHAM rats
staining of other tissues (kidney, spleen, heart, ileum, brain) ([6]; BDL and SHAM rats): no, or minor staining
B5: 13F11-13E8-ABD-AF647: 13F11-13E8-ABD conjugated to Alexa Fluor 647 (conjugate)
chain: EVQLVESGGRLVQPGDSLRLSCAASGRTFSDNAMGWFRQAPGKERRFVAGISWAGGSTYYSDSVKGRFTISRDNAKNTVYLQMNSLKPEDTAVYYCAAGLRAWVQRMPKDYNYWGQGTQVTVSSGGGGSGGGGSGGGGSEVQLVESGGGLVQAGGSLRLSCAASRSISPMGWYRQAPGKQRELVAIMPSSGPPIYADSVQGRFTISRDNAKNTVYLQMNSLKPEDTAVYYCNVGGGYWGQGTQVTVSS
modifications: left off: large carriers; small tags and cut ends
binding to cells in liver sections of BDL rats ([6]; 50 nM, overnight at 4° C.): clearly binds to cells in a liver from BDL rats

competition with 13F11 for binding to hIGF2R-ECD [2]: compete
B9: 13G10: VHH targeting IGF2R, SEQ ID NO: 305 (protein, listed as Lama glama)
VHH: EVQLVESGGGLVQAGGSLRLSCAASGLTFSSYTMAWYRQAPGKEREVVAAISSGDSIYHEDSVQGRFIISRDNAKNTVYLQMNSLKAEDTAVYYCRANGPGTYWGQGTQVTVSS

Continued, molecule first:

B2: 13E8: VHH targeting IGF2R, SEQ ID NO: 249 (protein, listed as Lama glama)
VHH: EVQLVESGGGLVQAGGSLRLSCAASRSISPMGWYRQAPGKQRELVAIMPSSGPPIYADSVQGRFTISRDNAKNTVYLQMNSLKPEDTAVYYCNVGGGYWGQGTQVTVSS
competition with 13F11 for binding to hIGF2R-ECD [2]: did not compete; also recorded: do not compete
decrease in fluorescence intensity of labelled 13F11 ([2]; 10 nM labelled 13F11, 250 nM unlabelled competitor): less than 5%

B3: 13F11-13E8-ABD: 13F11-13E8 re-engineered to include an albumin binding domain (ABD) as half-life extender (protein)
chain: B5 chain
modifications: left off: large carriers; small tags and cut ends
fraction of the infused dose still in circulation ([3]; one hour after dosing, estimated serum volume 10 mL): approximately 50%
Cmax ([3]; rat, i.v., approximately 3 mg/kg, read-out: peak serum level (Cmax)): > 1000 nM

B4: test conjugate: 13F11-13E8-ABD conjugated to a Y27632-maleimide modified functional moiety (1e) (conjugate)
chain: B5 chain
modifications: non-natural residues; left off: large carriers; small tags and cut ends
distribution of conjugate versus tissue distribution of IGF2R ([4]; liver of BDL rats): overlapped with the (tissue) distribution of IGF2R; also recorded: displays co-localization with IGF2R
detection of conjugate in liver of BDL rats [4, 7]: clearly detected
detection of conjugate in liver of SHAM rats [4, 7]: not in the healthy liver of SHAM rats
mean arterial pressure (MAP) ([5]; BDL rats, one hour): remained constant
portal pressure (PP) ([5]; BDL rats, one hour): gradual decrease of portal pressure
portal or arterial pressure ([5]; SHAM rats): neither the test conjugate nor the mock conjugate affected portal or arterial pressure

B6: 13A8: VHH targeting IGF2R, SEQ ID NO: 257 (protein, listed as Lama glama)
VHH: EVQLVESGGGLVPAGGSLRLSCAASGRTFSNYAMGWFRQAPGKERKFVATISWSGGVTYYADSVKGRFTISRDNAKNTVYLLMNSLKPEDTAVYYCAAKRDSSSYDHRRYDYWGQGTQVTVSS
competition with 13F11 for binding to hIGF2R-ECD [2]: complete competition; also recorded: compete

B7: 13A12: VHH targeting IGF2R, SEQ ID NO: 289 (protein, listed as Lama glama)
VHH: EVQLVESGGGLVQAGGSLRLSCAASGIIFGANTVGWYRQVPGKERDVVASITSGDSTYYGDSVRGRFTISRDNAKNTMYLQMNSLKPEDTAIYYCRARTTDGSYWGQGTQVTVS
competition with 13F11 for binding to hIGF2R-ECD [2]: compete

B8: 13C11: VHH targeting IGF2R, SEQ ID NO: 297 (protein, listed as Lama glama)
VHH: B9 VHH with D61G
competition with 13F11 for binding to hIGF2R-ECD [2]: compete
